Patent publication US20190359666A1 (ACADEMIA SINICA, published 2019)

T1: nrgbx (UniProt Q02297-6 2-246, limits assumed)
T1 construct: also called neuregulin
T1 sequence (looked up): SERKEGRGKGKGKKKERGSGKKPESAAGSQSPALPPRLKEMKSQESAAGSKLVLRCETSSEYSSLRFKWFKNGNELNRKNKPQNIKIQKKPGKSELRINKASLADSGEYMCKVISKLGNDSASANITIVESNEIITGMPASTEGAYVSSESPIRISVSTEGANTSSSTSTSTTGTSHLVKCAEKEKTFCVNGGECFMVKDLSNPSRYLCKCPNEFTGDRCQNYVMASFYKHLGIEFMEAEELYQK

B1: 4382 (other)
chain: GASSAVNASAVSRLRAYLLPAPPAPGNASESEEDRSAGSVESPSVSSTHRVSDPKFHPLHSKIIIIKKGHAKDSQRYKVDYESQSTDTQNFSSESKREVECPPCPAPPVAGPSVFLFPPKPKDQLMISRTPEVTCVVVDVSHEDPEVKFNWYVDGVEVHNAKTKPREEQYNSTYRVVSVLTVLHQDWLNGKEYKCKVSNKGLPSSIEKTISKAKGQPREPQVYTLPPSREEMTKNQVSLTCLVKGFYPSDIAVEWESNGQPENNYKTTPPVLDSDGSFFLYSKLTVDKSRWQQGNVFSCSVMHEGLHNHYTQKSLSLSPGK
notes: Fragment of BP3; also called ligand 4382; linker region alone
B2: IGFBP3-Fc-2 (Fc fusion)
chain: GASSAGLGPVVRCEPCDARALAQCAPPPAVCAELVREPGCGCCLTCALSEGQPCGIYTERCGSGLRCQPSPDEARPLQALLDGRGLCVNASAVSRPAPPAPGNASESEEDRSAGSVESPSVSSTHRVSDPKFHPKGHAKDSQRYKVDYESQSTDTQNFSSESKRETEYGPCRREMEDTLNHLKFLNVLSPRGVHIPNCDKKGFYKKKQCRPSKGRKRGFCWCVDKYGQPLPGYTTKGKEDVHCYSMQSKVECPPCPAPPVAGPSVFLFPPKPKDQLMISRTPEVTCVVVDVSHEDPEVKFNWYVDGVEVHNAKTKPREEQYNSTYRVVSVLTVLHQDWLNGKEYKCKVSNKGLPSSIEKTISKAKGQPREPQVYTLPPSREEMTKNQVSLTCLVKGFYPSDIAVEWESNGQPENNYKTTPPVLDSDGSFFLYSKLTVDKSRWQQGNVFSCSVMHEGLHNHYTQKSLSLSPGK
notes: IGFBP3 with IGFBP3 linker deletion 2, fused to Fc; dimeric; also called 3(del2)3; 3(del2)3Fc
B3: VEGF-B (ligand, UniProt P49765-2 22-188, looked up)
chain: PVSQPDAPGHQRKVVSWIDVYTRATCQPREVVVPLTVELMGTVAKQLVPSCVTVQRCGGCCPDDGLECVPTGQHQVRMQILMIRYPSSQLGEMSLEEHSQCECRPKKKDSAVKPDSPRPLCPRCTQHHQRPDPRTCRCRCRRRSFLRCQGRGLELNPDTCRCRKLRR
B4: IGFBP3-Fc-3 (Fc fusion)
chain: GASSAGLGPVVRCEPCDARALAQCAPPPAVCAELVREPGCGCCLTCALSEGQPCGIYTERCGSGLRCQPSPDEARPLQALLDGRGLCVNASAVSRPAPPAPGNASESEEDRSAGSVESPSVSSTHRVSDPKFHPKGHAKVDYESQSTDTQNFSSESKRETEYGPCRREMEDTLNHLKFLNVLSPRGVHIPNCDKKGFYKKKQCRPSKGRKRGFCWCVDKYGQPLPGYTTKGKEDVHCYSMQSKVECPPCPAPPVAGPSVFLFPPKPKDQLMISRTPEVTCVVVDVSHEDPEVKFNWYVDGVEVHNAKTKPREEQYNSTYRVVSVLTVLHQDWLNGKEYKCKVSNKGLPSSIEKTISKAKGQPREPQVYTLPPSREEMTKNQVSLTCLVKGFYPSDIAVEWESNGQPENNYKTTPPVLDSDGSFFLYSKLTVDKSRWQQGNVFSCSVMHEGLHNHYTQKSLSLSPGK
notes: IGFBP3 with IGFBP3 linker deletion 3, fused to Fc; dimeric; also called 3(del3)3; 3(del3)3Fc
B5: IGFBP3-GS16-VEGF-Fc (Fc fusion)
chain: GASSAGLGPVVRCEPCDARALAQCAPPPAVCAELVREPGCGCCLTCALSEGQPCGIYTERCGSGLRCQPSPDEARPLQALLDGRGLCVNASAVSKGHAKDSQRYKVDYESQSTDTQNFSSESKRETEYGPCRREMEDTLNHLKFLNVLSPRGVHIPNCDKKGFYKKKQCRPSKGRKRGFCWCVDKYGQPLPGYTTKGKEDVHCYSMQSKGGGGSGGGGSGGGGSGIYIFISDTGRPFVEMYSEIPEIIHMTEGRELVIPCRVTSPNITVTLKKFPLDTLIPDGKRIIWDSRKGFIISNATYKEIGLLTCEATVNGHLYKTNYLTHRQGYRIYDVVLSPSHGIELSVGEKLVLNCTARTELNVGIDFNWEYPSSKHQHKKLVNRDLKTQSGSEMKKFLSTLTIDGVTRSDQGLYTCAASSGLMTKKNSTFVRVHEKVECPPCPAPPVAGPSVFLFPPKPKDQLMISRTPEVTCVVVDVSHEDPEVKFNWYVDGVEVHNAKTKPREEQYNSTYRVVSVLTVLHQDWLNGKEYKCKVSNKGLPSSIEKTISKAKGQPREPQVYTLPPSREEMTKNQVSLTCLVKGFYPSDIAVEWESNGQPENNYKTTPPVLDSDGSFFLYSKLTVDKSRWQQGNVFSCSVMHEGLHNHYTQKSLSLSPGK
notes: IGFBP3 with linker deletion 1 - GS 16 linker - v1v2 - Fc; dimeric; also called Chimera B; 3-t3-3-GS16-V1V2
B6: Rantes (ligand, UniProt P13501 24-91, looked up)
chain: SPYSSDTTPCCFAYIARPLPRAHIKEYFYTSGKCSNPAVVFVTRKNRQVCANPEKKWVREYINSLEMS
notes: The excerpts show no construct or source
B7: 4141 (other)
chain: GASSAGLGPVVRCEPCDARALAQCAPPPAVCAELVREPGCGCCLTCALSEGQPCGIYTERCGSGLRCQPSPDEARPLQALLDGRGLCVNASAVSKGHAKDSQRYKVDYESQSTDTQNFSSESKRETEYVECPPCPAPPVAGPSVFLFPPKPKDQLMISRTPEVTCVVVDVSHEDPEVKFNWYVDGVEVHNAKTKPREEQYNSTYRVVSVLTVLHQDWLNGKEYKCKVSNKGLPSSIEKTISKAKGQPREPQVYTLPPSREEMTKNQVSLTCLVKGFYPSDIAVEWESNGQPENNYKTTPPVLDSDGSFFLYSKLTVDKSRWQQGNVFSCSVMHEGLHNHYTQKSLSLSPGK
notes: Fragment of BP3; also called N-terminus plus partial linker
B8: 4142 (other)
chain: GASSAGLGPVVRCEPCDARALAQCAPPPAVCAELVREPGCGCCLTCALSEGQPCGIYTERCGSGLRCQPSPDEARPLQALLDGRGLCVNASAVSVECPPCPAPPVAGPSVFLFPPKPKDQLMISRTPEVTCVVVDVSHEDPEVKFNWYVDGVEVHNAKTKPREEQYNSTYRVVSVLTVLHQDWLNGKEYKCKVSNKGLPSSIEKTISKAKGQPREPQVYTLPPSREEMTKNQVSLTCLVKGFYPSDIAVEWESNGQPENNYKTTPPVLDSDGSFFLYSKLTVDKSRWQQGNVFSCSVMHEGLHNHYTQKSLSLSPGK
notes: Fragment of BP3; also called ligand 4142; N-terminus only

Columns and labels:
VEGF-B = molecular target: B3; assay: binding test, fragment as ligand, growth factor in 0.65 M NaCl
PDGF AB = molecular target: T2, PDGF AB (UniProt P04085 87-211; P01127 82-190, limits assumed); assay: as above
T2 construct: Heterodimer by its name

nrgbx [1] = molecular target: T1, nrgbx; assay: as above
bFGF [2] = molecular target: T3, bFGF (UniProt P09038 143-288, limits assumed); assay: as above
T3 construct: also called basic fibroblast growth factor

IGF-1 [3] = molecular target: T4, IGF-1 (UniProt P05019 49-118); assay: biotinylated IGF-1 ELISA on Fc-captured chimera, 4 C PBS control (the reference); experiment 4-81
T4 construct: Biotinylated IGF-1 is written as the same molecule; also called biotinylated IGF-1; IGF-1-bio
Experimental: (§1) Plates were coated with goat anti-human Fc antibody, blocked and then incubated with chimera as in the Fc ELISA. Biotinylated IGF-1 (GroPep) or VEGF-Biotin (R&D Systems VEGF biotinylated with sulfo-NHS-LC-biotin as per instructions (Pierce) was added for 2 hours followed by streptavidin-HRP (Jackson Immunoresearch) for 30 minutes. Chromogenic development with tetramethyl benzidine was performed as described above.
(§2) To test the stability of the present chimeras, some purified chimeras (see, Table 4) were incubated with PBS or a conditioned medium from the MCF-7 cell line overnight at 37° C. and PBS overnight at 4° C. The IGF-1 binding and VEGF binding were measured using the biotinylated IGF-1 and VEGF.

IGF-1 [4] = molecular target: T4, IGF-1; assay: biotinylated IGF-1 ELISA on Fc-captured chimera, after overnight in PBS at 37 C, against the 4 C PBS control; experiment 4-81
Experimental: as §1, §2

IGF-1 [5] = molecular target: T4, IGF-1; assay: biotinylated IGF-1 ELISA on Fc-captured chimera, after overnight in MCF-7 conditioned medium at 37 C, against the 4 C PBS control; experiment 4-81
Experimental: as §1, §2

IGF-1 [6] = molecular target: T4, IGF-1; assay: Biacore SPR; experiment 4-79
Experimental: (§3) Biacore binding was performed at David Myszka's laboratory at the University of Utah or at the Genomic Research Center at Academia Sinica. Surfaces of binding protein chimera were made via chemical immobilization on a CM4 chip using standard amine coupling chemistry. […] Excess surface carboxyl activated sites on all four flow cells was blocked using the doubly positively charged species ethylenediamine. Binding experiments (but not immobilizations) in HBS-P (10 mM HEPES pH 7.4, 150 mM NaCl, 0.05% P20), The HBS-P was supplemented with BSA at 0.2 mg/mL, or HBS-P was supplemented with 500 mM NaCl (650 mM NaCl, final concentration). Analytes were also reconstituted in the corresponding buffer. All experiments were performed at 25° C. 1/150 dilutions of phosphoric acid were used to regenerate IGFBP3-Fc surfaces and a sequence of 3 M MgCl₂ followed by 5 M GuCl was used to regenerate surfaces immobilized with growth factor. Dissociation constants reported below used immobilized binding protein unless noted. Differences between binding constants may be expected between growth factor immobilization and chimera immobilization.

bFGF [7] = molecular target: T3, bFGF; assay: Biacore SPR, immobilised bFGF; experiment 4-79
Experimental: as §3

wild-type IGFBP3 = molecular target: T5, wild-type IGFBP3 (human, UniProt P17936 28-291); assay: summary of the foregoing examples; method not given
T5 construct: also called human IGFBP3

nrgbx [8] = molecular target: T1, nrgbx; assay: cell-based or functional assay
IGF-1 [9] = molecular target: T4, IGF-1; assay: cell-based or functional assay
IGF-1 [10] = molecular target: T4, IGF-1; assay: biotinylated IGF-1 ELISA on Fc-captured chimera, 4 C PBS control (the reference); experiment 3-192
Experimental: as §1, §2

IGF-1 [11] = molecular target: T4, IGF-1; assay: biotinylated IGF-1 ELISA on Fc-captured chimera, after overnight in MCF-7 conditioned medium at 37 C, against the 4 C PBS control; experiment 3-192
Experimental: as §1, §2

IGF-1 [12] = molecular target: T4, IGF-1; assay: biotinylated IGF-1 ELISA on Fc-captured chimera, after overnight in PBS at 37 C, against the 4 C PBS control; experiment 3-192
Experimental: as §1, §2

IGF-2 = IGF-2 (UniProt P01344 25-91); assay: binding test, fragment as ligand, growth factor in 0.65 M NaCl
IGF-1 [13] = molecular target: T4, IGF-1; assay: as above

T3 sequence (P09038 143-288 limits assumed): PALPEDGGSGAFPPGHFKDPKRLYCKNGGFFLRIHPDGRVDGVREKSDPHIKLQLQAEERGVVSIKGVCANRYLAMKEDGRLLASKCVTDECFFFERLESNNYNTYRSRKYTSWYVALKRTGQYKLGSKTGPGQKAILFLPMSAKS
T4 sequence (P05019 49-118 limits assumed): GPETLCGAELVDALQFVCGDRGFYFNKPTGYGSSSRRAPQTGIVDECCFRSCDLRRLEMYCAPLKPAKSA
T2 sequence (P01127 82-190 limits assumed, chain 2 of 2, other chains not shown): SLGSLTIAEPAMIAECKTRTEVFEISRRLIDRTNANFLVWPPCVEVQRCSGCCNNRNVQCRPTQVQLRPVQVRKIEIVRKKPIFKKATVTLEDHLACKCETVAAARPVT
Chain of IGF-2 (P01344 25-91 limits assumed): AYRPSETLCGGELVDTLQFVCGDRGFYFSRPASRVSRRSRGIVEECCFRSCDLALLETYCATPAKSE

Does B1 bind (VEGF-B)?
Result: no binding

Does B1 bind (PDGF AB)?
Result: no binding

Does B1 bind (nrgbx [1])?
Result: no binding

Does B1 bind (bFGF [2])?
Result: no binding

Which results are given for B2?
IGF-1 binding remaining over controls (IGF-1 [3]): 100%; IGF-1 binding remaining over controls (IGF-1 [4]): 72%; IGF-1 binding remaining over controls (IGF-1 [5]): 43%; Kd (IGF-1 [6]): 0.32 nM; Kd (bFGF [7]): 4.32 nM

Does B3 bind (wild-type IGFBP3)?
Result: binds

What does the source list for B4?
IGF-1 binding remaining over controls (IGF-1 [3]): 100%; IC50 in inhibiting neuregulin-induced proliferation (nrgbx [8]): 80 nM; EC50 in inhibiting IGF-1 induced proliferation of hep3B cells (IGF-1 [9]): 21 nM; IGF-1 binding remaining over controls (IGF-1 [4]): 84%; IGF-1 binding remaining over controls (IGF-1 [5]): 49%; Kd (IGF-1 [6]): 0.371 nM; Kd (bFGF [7]): 3.44 nM

With B5 as the binder, how does the “IGF-1 binding remaining over controls” value (IGF-1 [10]) read?
Its value is 100%.

What about the “IGF-1 binding remaining over controls” value (IGF-1 [11]) of the same binder?
The value was 82%.

What about the “IGF-1 binding remaining over controls” value (IGF-1 [12]) of the same binder?
The value was 167%.

Does B6 bind (wild-type IGFBP3)?
Result: binds

Which results are given for B7?
binding result (IGF-2): binds; binding result (VEGF-B): binds; binding result (PDGF AB): binds; binding result (bFGF [2]): binds; binding result (IGF-1 [13]): binds

Does B8 bind (IGF-2)?
Result: binds

Does B8 bind (VEGF-B)?
Result: no binding

Does B8 bind (PDGF AB)?
Result: no binding

Does B8 bind (nrgbx [1])?
Result: no binding

Does B8 bind (bFGF [2])?
Result: no binding

Does B8 bind (IGF-1 [13])?
Result: binds
